B1: Azoarcus group I ribozyme (parent)
chain: GUGCCUUGCGCCGGGAAACCACGCAAGGGAUGGUGUCAAAUUCGGCGAAACCUAAGCGCCCGCCCGGGCGUAUGGCAACGCCGAGCCAAGCUUCGGCGCCUGCGCCGAUGAAGGUGUAGAGACUAGACGGCACCCACCUAAGGCAAACGCUAUGGUGAAGGCAUAGUCCAGGGAGUGGCGAAAGUCACACAAACCGG

Variants of B1 are the subject of this series. Briefly: reverse-splicing fitness (ratio to wild type); higher = more active; in vitro selection; Mg2+ level not given. In outline: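 An in vitro group I ribozyme library with randomized positions was T7-transcribed and gel-purified. In triplicate, 10 pmol RNA in EPPS pH 7.5 was reacted with 50 pmoles of a 30-nt RNA substrate for 1 h at 37 °C across several added MgCl2 levels (1–48 mM), then stopped with EDTA. Products were reverse transcribed from a substrate-complementary primer, PCR-amplified and sequenced (HiSeq 4000). Fitness is a variant's read proportion after selection over that before, normalised to wild type.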
Consider GUGCCUUGCGCCGGGAAACCACGCAAGGGAUGGUGUCAAAUUCGGCGAAACCUAAGCGCCCGCCCGGGCGUAUGGCAACGCAGAGCCAAGCUUCGGCGCCUGCGCCGAUGGAGGUGUAGGGACUAGACGGCACCCACCUAAGGCUAACGUUAUGGUGAAGGCAUAGUCCAGGGAGUGGCGAAAGUCACACAAACCGG [C82A A111G A120G A145U C150U], for which the reverse-splicing fitness was found to be 0.0134.

Consider GUGCCUUGCGCCGGGAAACCACGCAAGGGAUGGUGUCAAAUUCGGCGAAACCUAAGCGCCCGCCCGGGCGUAUGGCAACGCUGAGCCAAGCUUCGGCGCCUGCGCCGAUGAAGGUGUAGCGACUAGACGGCACCCACCUAAGGCGAACGGUAUGGUGAAGGCAUAGUCCAGGGAGCGGCGAAAGUCACACAAACCGG [C82U A120C A145G C150G U176C], for which the reverse-splicing fitness turned out to be 0.0157.

For the variant GUGCCUUGCGCCGGGAAACCACGCAAGGGAUGGUGUCAAAUUCGGCGAAACCUAAGCGCCCGCCCGGGCGUAUGGCAACGCAGAGCCAAGCUUCGGCGCCUGCGCCGAUGUAGGUGUAGAGACUAGACGGCACCCACCUAAGGCGAACGGUAUGGUGAAGGCAUAGUCAAGGGAGAGGCGAAAGUCACACAAACCGG [C82A A111U A145G C150G C169A U176A], the reverse-splicing fitness was 0.0138. On to GUGCCUUGCGCCGGGAAACCACGCAAGGGAUGGUGUCAAAUUCGGCGAAACCUAAGCGCCCGCCCGGGCGUAUGGCAACGCAGAGCCAAGCUUCGGCGCCUGCGCCGAUGCAGGUGUAGUGACUAGACGGCACCCACCUAAGGCCAACGAUAUGGUGAAGGCAUAGUCGAGGGAGCGGCGAAAGUCACACAAACCGG [C82A A111C A120U A145C C150A C169G U176C], for which the reverse-splicing fitness is 0.00345. To GUGCCUUGCGCCGGGAAACCACGCAAGGGAUGGUGUCAAAUUCGGCGAAACCUAAGCGCCCGCCCGGGCGUAUGGCAACGCUGAGCCAAGCUUCGGCGCCUGCGCCGAUGCAGGUGUAGGGACUAGACGGCACCCACCUAAGGCAAACGUUAUGGUGAAGGCAUAGUCGAGGGAGUGGCGAAAGUCACACAAACCGG [C82U A111C A120G C150U C169G] belongs 0.00848; to GUGCCUUGCGCCGGGAAACCACGCAAGGGAUGGUGUCAAAUUCGGCGAAACCUAAGCGCCCGCCCGGGCGUAUGGCAACGCGGAGCCAAGCUUCGGCGCCUGCGCCGAUGCAGGUGUAGGGACUAGACGGCACCCACCUAAGGCGAACGUUAUGGUGAAGGCAUAGUCCAGGGAGGGGCGAAAGUCACACAAACCGG [C82G A111C A120G A145G C150U U176G], 0.00692. To GUGCCUUGCGCCGGGAAACCACGCAAGGGAUGGUGUCAAAUUCGGCGAAACCUAAGCGCCCGCCCGGGCGUAUGGCAACGCGGAGCCAAGCUUCGGCGCCUGCGCCGAUGAAGGUGUAGGGACUAGACGGCACCCACCUAAGGCUAACGGUAUGGUGAAGGCAUAGUCAAGGGAGGGGCGAAAGUCACACAAACCGG [C82G A120G A145U C150G C169A U176G] belongs 0.00431. Take GUGCCUUGCGCCGGGAAACCACGCAAGGGAUGGUGUCAAAUUCGGCGAAACCUAAGCGCCCGCCCGGGCGUAUGGCAACGCGGAGCCAAGCUUCGGCGCCUGCGCCGAUGAAGGUGUAGCGACUAGACGGCACCCACCUAAGGCAAACGUUAUGGUGAAGGCAUAGUCAAGGGAGUGGCGAAAGUCACACAAACCGG [C82G A120C C150U C169A]: the reverse-splicing fitness worked out at 0.0121.

In the case of GUGCCUUGCGCCGGGAAACCACGCAAGGGAUGGUGUCAAAUUCGGCGAAACCUAAGCGCCCGCCCGGGCGUAUGGCAACGCCGAGCCAAGCUUCGGCGCCUGCGCCGAUGUAGGUGUAGCGACUAGACGGCACCCACCUAAGGCAAACGCUAUGGUGAAGGCAUAGUCUAGGGAGAGGCGAAAGUCACACAAACCGG [A111U A120C C169U U176A], the reverse-splicing fitness came out at 0.0322. For the variant GUGCCUUGCGCCGGGAAACCACGCAAGGGAUGGUGUCAAAUUCGGCGAAACCUAAGCGCCCGCCCGGGCGUAUGGCAACGCUGAGCCAAGCUUCGGCGCCUGCGCCGAUGAAGGUGUAGUGACUAGACGGCACCCACCUAAGGCAAACGCUAUGGUGAAGGCAUAGUCAAGGGAGCGGCGAAAGUCACACAAACCGG [C82U A120U C169A U176C], the reverse-splicing fitness came out at 0.00216. To GUGCCUUGCGCCGGGAAACCACGCAAGGGAUGGUGUCAAAUUCGGCGAAACCUAAGCGCCCGCCCGGGCGUAUGGCAACGCGGAGCCAAGCUUCGGCGCCUGCGCCGAUGGAGGUGUAGAGACUAGACGGCACCCACCUAAGGCGAACGUUAUGGUGAAGGCAUAGUCAAGGGAGUGGCGAAAGUCACACAAACCGG [C82G A111G A145G C150U C169A] belongs 0.0104; to GUGCCUUGCGCCGGGAAACCACGCAAGGGAUGGUGUCAAAUUCGGCGAAACCUAAGCGCCCGCCCGGGCGUAUGGCAACGCAGAGCCAAGCUUCGGCGCCUGCGCCGAUGUAGGUGUAGGGACUAGACGGCACCCACCUAAGGCUAACGAUAUGGUGAAGGCAUAGUCAAGGGAGUGGCGAAAGUCACACAAACCGG [C82A A111U A120G A145U C150A C169A], 0.00942. For the variant GUGCCUUGCGCCGGGAAACCACGCAAGGGAUGGUGUCAAAUUCGGCGAAACCUAAGCGCCCGCCCGGGCGUAUGGCAACGCGGAGCCAAGCUUCGGCGCCUGCGCCGAUGAAGGUGUAGUGACUAGACGGCACCCACCUAAGGCUAACGAUAUGGUGAAGGCAUAGUCGAGGGAGAGGCGAAAGUCACACAAACCGG [C82G A120U A145U C150A C169G U176A], the reverse-splicing fitness is 0.00221. As to GUGCCUUGCGCCGGGAAACCACGCAAGGGAUGGUGUCAAAUUCGGCGAAACCUAAGCGCCCGCCCGGGCGUAUGGCAACGCUGAGCCAAGCUUCGGCGCCUGCGCCGAUGUAGGUGUAGGGACUAGACGGCACCCACCUAAGGCCAACGUUAUGGUGAAGGCAUAGUCCAGGGAGAGGCGAAAGUCACACAAACCGG [C82U A111U A120G A145C C150U U176A], the reverse-splicing fitness worked out at 0.00859. To GUGCCUUGCGCCGGGAAACCACGCAAGGGAUGGUGUCAAAUUCGGCGAAACCUAAGCGCCCGCCCGGGCGUAUGGCAACGCUGAGCCAAGCUUCGGCGCCUGCGCCGAUGCAGGUGUAGGGACUAGACGGCACCCACCUAAGGCAAACGUUAUGGUGAAGGCAUAGUCUAGGGAGAGGCGAAAGUCACACAAACCGG [C82U A111C A120G C150U C169U U176A] belongs 0.017.

For the origin of these results see the RNAGym collection of RNA variant scans (doi:10.1093/molbev/msab373).
